Test results as given in US20080274950A1 (BABRAHAM INSTITUTE, published 2008).

T1: human N-cadherin naturally expressed on DX3 melanoma cells (human, UniProt P19022 160-906)
T1 construct: also called DX3 Cells; N-cadherin+ve DX3 melanoma cells
T1 sequence: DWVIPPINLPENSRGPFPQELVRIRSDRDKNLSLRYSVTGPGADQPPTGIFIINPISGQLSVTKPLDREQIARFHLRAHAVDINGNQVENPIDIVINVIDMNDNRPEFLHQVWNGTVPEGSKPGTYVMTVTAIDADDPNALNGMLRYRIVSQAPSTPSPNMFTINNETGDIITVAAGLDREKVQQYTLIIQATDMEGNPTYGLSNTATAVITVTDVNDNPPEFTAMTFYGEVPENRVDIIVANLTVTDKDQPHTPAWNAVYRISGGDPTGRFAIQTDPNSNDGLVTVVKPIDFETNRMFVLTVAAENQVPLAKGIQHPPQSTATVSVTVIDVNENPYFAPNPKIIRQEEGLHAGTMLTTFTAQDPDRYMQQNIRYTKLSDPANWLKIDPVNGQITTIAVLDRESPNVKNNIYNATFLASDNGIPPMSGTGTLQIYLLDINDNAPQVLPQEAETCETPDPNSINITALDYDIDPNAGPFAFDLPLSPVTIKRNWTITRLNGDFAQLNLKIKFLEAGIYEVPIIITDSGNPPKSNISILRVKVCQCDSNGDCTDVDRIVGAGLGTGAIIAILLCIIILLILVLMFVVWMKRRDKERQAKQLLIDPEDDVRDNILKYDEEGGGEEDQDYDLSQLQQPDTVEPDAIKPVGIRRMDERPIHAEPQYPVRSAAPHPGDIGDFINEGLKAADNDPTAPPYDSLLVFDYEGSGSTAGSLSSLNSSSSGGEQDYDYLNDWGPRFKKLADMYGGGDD

T2: full length chicken N-cadherin with the N-terminus extended by two glycine residues (GG) expressed on K562 … (chicken, UniProt P10288 165-912)
T2 construct: whole, on cells; also called cells expressing the GG N-terminal extension mutant; K562 GG
T2 sequence: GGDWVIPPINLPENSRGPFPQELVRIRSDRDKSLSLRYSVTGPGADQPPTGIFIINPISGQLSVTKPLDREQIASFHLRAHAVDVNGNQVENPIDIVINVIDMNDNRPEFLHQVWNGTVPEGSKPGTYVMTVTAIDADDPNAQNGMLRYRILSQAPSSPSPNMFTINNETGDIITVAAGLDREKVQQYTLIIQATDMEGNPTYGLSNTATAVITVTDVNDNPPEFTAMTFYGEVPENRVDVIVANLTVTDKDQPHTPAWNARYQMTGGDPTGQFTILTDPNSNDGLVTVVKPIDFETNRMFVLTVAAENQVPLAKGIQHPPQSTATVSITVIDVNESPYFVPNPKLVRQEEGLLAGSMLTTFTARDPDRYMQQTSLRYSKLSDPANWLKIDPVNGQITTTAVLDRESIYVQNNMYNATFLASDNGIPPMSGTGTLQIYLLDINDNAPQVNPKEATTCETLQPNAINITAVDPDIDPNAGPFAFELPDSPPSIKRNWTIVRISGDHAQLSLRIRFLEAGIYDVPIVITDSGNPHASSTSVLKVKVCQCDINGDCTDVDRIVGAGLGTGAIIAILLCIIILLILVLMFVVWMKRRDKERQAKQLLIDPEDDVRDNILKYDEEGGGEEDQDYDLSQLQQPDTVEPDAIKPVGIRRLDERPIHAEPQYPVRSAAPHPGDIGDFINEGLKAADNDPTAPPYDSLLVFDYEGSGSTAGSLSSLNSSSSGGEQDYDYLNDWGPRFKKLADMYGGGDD

B1: monomeric chicken N-cadherin-Fc with the mutation D27C (Fc fusion, UniProt P10288 165-728, looked up)
chain: DWVIPPINLPENSRGPFPQELVRIRSCRDKSLSLRYSVTGPGADQPPTGIFIINPISGQLSVTKPLDREQIASFHLRAHAVDVNGNQVENPIDIVINVIDMNDNRPEFLHQVWNGTVPEGSKPGTYVMTVTAIDADDPNAQNGMLRYRILSQAPSSPSPNMFTINNETGDIITVAAGLDREKVQQYTLIIQATDMEGNPTYGLSNTATAVITVTDVNDNPPEFTAMTFYGEVPENRVDVIVANLTVTDKDQPHTPAWNARYQMTGGDPTGQFTILTDPNSNDGLVTVVKPIDFETNRMFVLTVAAENQVPLAKGIQHPPQSTATVSITVIDVNESPYFVPNPKLVRQEEGLLAGSMLTTFTARDPDRYMQQTSLRYSKLSDPANWLKIDPVNGQITTTAVLDRESIYVQNNMYNATFLASDNGIPPMSGTGTLQIYLLDINDNAPQVNPKEATTCETLQPNAINITAVDPDIDPNAGPFAFELPDSPPSIKRNWTIVRISGDHAQLSLRIRFLEAGIYDVPIVITDSGNPHASSTSVLKVKVCQCDINGDCTDVDRIVGAGLGT
notes: extracellular domain; not shown: hinge region, CH2 and CH3 domains of human IgG1 heavy chain (vector pIgSig)
B2: chicken N-cadherin Fc fusion protein with the pocket-blocking mutation A80I (Fc fusion, UniProt P10288 165-728, looked up)
chain: DWVIPPINLPENSRGPFPQELVRIRSDRDKSLSLRYSVTGPGADQPPTGIFIINPISGQLSVTKPLDREQIASFHLRAHIVDVNGNQVENPIDIVINVIDMNDNRPEFLHQVWNGTVPEGSKPGTYVMTVTAIDADDPNAQNGMLRYRILSQAPSSPSPNMFTINNETGDIITVAAGLDREKVQQYTLIIQATDMEGNPTYGLSNTATAVITVTDVNDNPPEFTAMTFYGEVPENRVDVIVANLTVTDKDQPHTPAWNARYQMTGGDPTGQFTILTDPNSNDGLVTVVKPIDFETNRMFVLTVAAENQVPLAKGIQHPPQSTATVSITVIDVNESPYFVPNPKLVRQEEGLLAGSMLTTFTARDPDRYMQQTSLRYSKLSDPANWLKIDPVNGQITTTAVLDRESIYVQNNMYNATFLASDNGIPPMSGTGTLQIYLLDINDNAPQVNPKEATTCETLQPNAINITAVDPDIDPNAGPFAFELPDSPPSIKRNWTIVRISGDHAQLSLRIRFLEAGIYDVPIVITDSGNPHASSTSVLKVKVCQCDINGDCTDVDRIVGAGLGT
notes: extracellular domain; also called A80I mutant; not shown: hinge region, CH2 and CH3 domains of human IgG1 heavy chain (vector pIgSig)
B3: chicken N-cadherin Fc fusion protein with the mutations E89A and D134A (Fc fusion, UniProt P10288 165-728, looked up)
chain: DWVIPPINLPENSRGPFPQELVRIRSDRDKSLSLRYSVTGPGADQPPTGIFIINPISGQLSVTKPLDREQIASFHLRAHAVDVNGNQVANPIDIVINVIDMNDNRPEFLHQVWNGTVPEGSKPGTYVMTVTAIAADDPNAQNGMLRYRILSQAPSSPSPNMFTINNETGDIITVAAGLDREKVQQYTLIIQATDMEGNPTYGLSNTATAVITVTDVNDNPPEFTAMTFYGEVPENRVDVIVANLTVTDKDQPHTPAWNARYQMTGGDPTGQFTILTDPNSNDGLVTVVKPIDFETNRMFVLTVAAENQVPLAKGIQHPPQSTATVSITVIDVNESPYFVPNPKLVRQEEGLLAGSMLTTFTARDPDRYMQQTSLRYSKLSDPANWLKIDPVNGQITTTAVLDRESIYVQNNMYNATFLASDNGIPPMSGTGTLQIYLLDINDNAPQVNPKEATTCETLQPNAINITAVDPDIDPNAGPFAFELPDSPPSIKRNWTIVRISGDHAQLSLRIRFLEAGIYDVPIVITDSGNPHASSTSVLKVKVCQCDINGDCTDVDRIVGAGLGT
notes: extracellular domain; also called D134A in combination with E89A; not shown: hinge region, CH2 and CH3 domains of human IgG1 heavy chain (vector pIgSig)
B4: full length chicken N-cadherin with the mutation D1C expressed on K562 cells (receptor, UniProt P10288 165-912, looked up)
chain: CWVIPPINLPENSRGPFPQELVRIRSDRDKSLSLRYSVTGPGADQPPTGIFIINPISGQLSVTKPLDREQIASFHLRAHAVDVNGNQVENPIDIVINVIDMNDNRPEFLHQVWNGTVPEGSKPGTYVMTVTAIDADDPNAQNGMLRYRILSQAPSSPSPNMFTINNETGDIITVAAGLDREKVQQYTLIIQATDMEGNPTYGLSNTATAVITVTDVNDNPPEFTAMTFYGEVPENRVDVIVANLTVTDKDQPHTPAWNARYQMTGGDPTGQFTILTDPNSNDGLVTVVKPIDFETNRMFVLTVAAENQVPLAKGIQHPPQSTATVSITVIDVNESPYFVPNPKLVRQEEGLLAGSMLTTFTARDPDRYMQQTSLRYSKLSDPANWLKIDPVNGQITTTAVLDRESIYVQNNMYNATFLASDNGIPPMSGTGTLQIYLLDINDNAPQVNPKEATTCETLQPNAINITAVDPDIDPNAGPFAFELPDSPPSIKRNWTIVRISGDHAQLSLRIRFLEAGIYDVPIVITDSGNPHASSTSVLKVKVCQCDINGDCTDVDRIVGAGLGTGAIIAILLCIIILLILVLMFVVWMKRRDKERQAKQLLIDPEDDVRDNILKYDEEGGGEEDQDYDLSQLQQPDTVEPDAIKPVGIRRLDERPIHAEPQYPVRSAAPHPGDIGDFINEGLKAADNDPTAPPYDSLLVFDYEGSGSTAGSLSSLNSSSSGGEQDYDYLNDWGPRFKKLADMYGGGDD
notes: whole, on cells; also called D1C cells; K562 D1C
B5: full length chicken N-cadherin with the mutation D27C expressed on K562 cells (receptor, UniProt P10288 165-912, looked up)
chain: DWVIPPINLPENSRGPFPQELVRIRSCRDKSLSLRYSVTGPGADQPPTGIFIINPISGQLSVTKPLDREQIASFHLRAHAVDVNGNQVENPIDIVINVIDMNDNRPEFLHQVWNGTVPEGSKPGTYVMTVTAIDADDPNAQNGMLRYRILSQAPSSPSPNMFTINNETGDIITVAAGLDREKVQQYTLIIQATDMEGNPTYGLSNTATAVITVTDVNDNPPEFTAMTFYGEVPENRVDVIVANLTVTDKDQPHTPAWNARYQMTGGDPTGQFTILTDPNSNDGLVTVVKPIDFETNRMFVLTVAAENQVPLAKGIQHPPQSTATVSITVIDVNESPYFVPNPKLVRQEEGLLAGSMLTTFTARDPDRYMQQTSLRYSKLSDPANWLKIDPVNGQITTTAVLDRESIYVQNNMYNATFLASDNGIPPMSGTGTLQIYLLDINDNAPQVNPKEATTCETLQPNAINITAVDPDIDPNAGPFAFELPDSPPSIKRNWTIVRISGDHAQLSLRIRFLEAGIYDVPIVITDSGNPHASSTSVLKVKVCQCDINGDCTDVDRIVGAGLGTGAIIAILLCIIILLILVLMFVVWMKRRDKERQAKQLLIDPEDDVRDNILKYDEEGGGEEDQDYDLSQLQQPDTVEPDAIKPVGIRRLDERPIHAEPQYPVRSAAPHPGDIGDFINEGLKAADNDPTAPPYDSLLVFDYEGSGSTAGSLSSLNSSSSGGEQDYDYLNDWGPRFKKLADMYGGGDD
notes: whole, on cells; also called K562 D27C

Tests used:
[1] = target: T1, human N-cadherin naturally expressed on …; experiment: adhesion of DX3 cells to coated monomeric N-cadherin-Fc, oxidising buffer
Description: Monomeric or dimeric N-cadherin-Fc fusion protein in Cos cell supernatants was added as described for the ELISA assay. DX3 Cells, a human melanoma cell line which expresses N-cadherin, were dissociated with Cell Dissociation Solution (Sigma, code C5789), resuspended in HBSS with 2% FCS and assessed for adhesion to wild type or mutant N-cadherin-Fc as previously described (Corps et al., 2001). Microscopic examination established that the cells were present as a single cell suspension as they settled onto the plate. For assays conducted in reducing conditions, 10 mM DTT was present during the adhesion and washing steps. Determinations were conducted in triplicate and results are presented as mean +/−sem.

[2] = target: the molecule itself; experiment: bead aggregation assay, 1.25 mM CaCl2
Description: Dynabeads (Dynal Biotech) coupled to Protein A were coated with N-cadherin Fc at 1 μg/ml in calcium and magnesium-free HBSS containing 0.1% Tween 20, 1% FCS and 4 mM EDTA. Eppendorf tubes containing beads and fusion protein were rotated slowly for 1 hour at room temperature to allow binding to take place. The beads were then washed in the above assay buffer lacking EDTA and then resuspended in the same buffer supplemented with 1.25 mM CaCl₂. Beads were allowed to aggregate in a volume of 100 μl for 2 hours at 37° C. by slow rotation, in an eppendorf tube, at approximately 20 rpm. Aggregation was then assessed by light microscopy.
In the experiments described so far in this example, disruption of the salt bridge prevented intramolecular docking of Trp 2 in one or both components of the dimer. In an alternative strategy to prevent intramolecular docking, we removed Trp2 by introducing the mutation W2G or blocked the hydrophobic acceptor pocket with an isoleucine side chain projecting into the cavity using the mutation A801. N-cadherin Fc fusion proteins with these mutations were then tested against our panel of K562 transfectants (FIG. 17a). In keeping with the explanation given in FIG. 5, the W2G mutant acted as a strand acceptor and therefore adhered strongly to the E89A mutant whereas the A80I mutant was a strand donor and adhered to the GG extension mutant. […] In contrast, beads coated with the W2G or A801 mutants and tested separately clustered in twos and threes, whereas beads coated with the negative control mutant, D134A, were entirely monodisperse. To test whether all five extracellular domains of N-cadherin (EC1-EC5) are necessary for the strong adhesive interaction between the complementary mutants, we compared the adhesive activity of the W2G mutant prepared as a full length (EC1-EC5) Fc fusion protein with that of the same mutant prepared as a truncated construct containing only cadherin domains EC1 and EC2.

[3] = target: T2, full length chicken N-cadherin with the …; experiment: adhesion of K562 transfectants to coated N-cadherin Fc
Description: Adhesion tests were conducted substantially as described in Example 1. Briefly, K562 Cells or L cells transfected with wild type or mutant N-cadherin were allowed to settle for 45 minutes at 37° C. onto N-cadherin Fc fusion proteins coated at 1 μg/ml to a 96 well plate. Non-adherent cells were then washed off and residual adherent cells were quantitated by measuring acid phosphatase activity. Assays were conducted in quadruplicate and results are expressed as % cells adhering +/−SEM.

[4] = target: the molecule itself; experiment: disulphide-bonded cis-dimers on the cell surface; non-reducing SDS-PAGE and immunoblot

| Binder | binding result [3] | binding result [4] | further results |
| --- | --- | --- | --- |
| B1 | – | – | binding result [1]: binds |
| B2 | binds | – | binding result [2]: binds |
| B3 | no binding (tested: Fc fusion protein coated at 1 µg/ml) | – | – |
| B4 | – | binds | – |
| B5 | – | binds | – |
